Laboratory results taken from the domain aggregation screens of Martell et al. (2025).

Experiment: soluble fraction after stress (log2 fold change); higher = more stays soluble; pooled small domains, quantitative proteomics
Conditions: stress: 50 degC
Method in brief: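 Pooled custom libraries of small protein domains were each held under stress at 50°C. The read-out, high-throughput quantitative proteomics, tracked how much of each protein stayed soluble. This is reported as a base-two log fold change used to indicate aggregation propensity. Higher values mean more protein remains in solution.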

Sequence | soluble fraction (log2)
HMWGAYHDGQVVKFPKKVTVYVIDGQYKRPLANEFVLKFLNYKTSDIIIDKDGNLNNYKNGAVVEH | -2.69
HMETLSKVGSTGSEVRQIQTKLKNWGYFSDKVDGIYGEKTRAAVVWFQKKNGLTADGIAGPATLKAMGIYT | -0.171
HMDEARLAVASNLIRLRTDAGMTQAELGEKLNYSDKTISKWERAEAIPDAFVLKQIGELFHVSVDFLLRTH | -0.37
HMPGRVITVMVNGKRVDLPFREEPYIFVDLFRYMDFDVERARGRIQLAINGKKAGYTDIIREGDSIEI | -0.562
HMYFMDEETWESKKTLLNDWYEANPEYADRRAISDGLFKIGDLQPDFRRRHWGSIGVIFADIPNSPMG | -0.915
HMRNMRKLWIARINAAARMNDISYSKLMHGLKLANVEINRKMLSEMAIDDPKSFTALVETAKKALNG | -0.894
HMFERINLIGVNGTTKKRSALVRLLDGEIVKIGVGDSLNGGQVVDISPATLTYLKSGKSIMLTLPK | -1.03
HMRAKPLILLDGREISAEELFSLDKNSIKSIEVLKDETALAQYGEKAKNGVVLVVTKSAAAS | 0.246
HMTRYEQLAAQIRQQIEDNIWQSGDRLPSLRDTVKQSGLSLMTVLQSYQLLESQGWITARPQSGYYVAHR | 0.348
HMGSAKAQLYDLMNAHQVTRNQIQDIVAEKGYFPAGTPIENYPDDFVKGVLVGAWDQVHKAILDKEI | 0.0946
HMTIDTSNDLLNQITEATSKGPISILELKDQLNVNASDIEGELRTLIDQHLVFLKDGMLQVIPFD | -0.0624
HMNAMFEKVLAAVMGFIGVSAFAKNADGKSEMTSDQEKRLTDKWGSKFVEEFKNDLLEYEKNGNAAEDAV | -0.264
HMRSDSEIKEDVLDELMWQPNIDETQIGVIVEKGVVTLTGFVDAYAKKTAALDAVKNVKGVKAVANDIEV | 0.131
HMAIADQPISAEHFDKLRQVLNSNTQETIASAKQHWASISNNAEFTNENVTRTLLEEMLAFIKSAS | 0.307
HMDSFEEGTYRKNQRGFGFVKIENQEDEIFISKENSLNALNGDRVIVEIIEDKDRTKRAEGKIKKILKHE | 0.201
HMQEEFVAPDVKDGAIVLHKAFGEGTVTKIDKAQKHIRVTFGVGEKTFIFPDAFKQGFLRMKG | 0.348
HMSNEDAYIKLRNGFLATLSEADLLLFTLREEGKTQKEIADQLGYKTHSAVSKRLQTMRGQFEGYLKTQ | -0.68
HMGDHYTALGLSIDATPEEIRSAYFLAARRSHPDANPDAQTTEWFLRVQEAYDILSNPRRRAEYDASLP | -0.554
HMIADDLKSLEGVDQDMLRDLAEAGINTRDDLAELAIDELIEITGVSTEEAEKVIMAARAHWFEEES | 0.463
HMEEPEYELLRQAVLALPEKYRLPIHLYYYEEYSVREIAEILQRKESAVQTQLQRGREKIRRSLTEKGVS | -0.77
HMTLQEFYARVGGDYNATLSRLPSEALVKKFILKYPGDPSFAQLKDALAAQDWELAFRASHTLKGVAQN | -1.3
HMPTKSDLLQWIKDRASKMGGAFTNSGAYALADAGVDGPRALSSEINKLLTYVNWERSVEADDVIRL | -0.13
HMAEVTLTVREQEVLHLLARGMSNGEMAAHLYVEPTTIKYHLTGLLQKTGSRDRLQAVLWGIRAGMVH | -2.18
HMVAGHLSEKKGYYYAVLNYKDYTGKRKSKWVSTGLPVKGNKRRAEKILADIKRDFVPEEPKR | -0.596
HMTREAILDTAEELLQRRGYNAFSYHHIAVQLGIRNAAIHYHFPAKEDLGIELVSRFRIRLAE | -0.146
HMSDVTPDVVRALRKRLKLTQVQFGEIFGMTSKKVSAWEHGKAEPTEEQKQKIQSLLKENNEQ | -0.0029

Sequence | soluble fraction (log2)
HMTQEQKQQISDQLRAYVEQKGSGNKAAASMNGVSSATISKVLAGKWETISEDMWRSIAAQTGH | 0.106
HMSNIIIYPNPTNDGLIHIKGSKFPFNYALYNLSGKLIETGKKNQIQLNDRGVYLLKIQTEGQTYFKKII | 0.272
HMASLSEREHDVAVLILQGKTYAEIGQAIFISPRTVEHHVASIRRRLEAKSRSDLIAKLRLTIGGTED | -2.18
HMSEILQLINKIDKKLEKGYTFANISRNHYEKIYKEEILNLYKTSKLKGEAEDSIKEVLESLLGDLRKP | 0.0222
HMEGNAFASTGDPEADILDITAVHPMRRDAVEELLARSGAEWSLVEGMLRDGKITMAPWEGEEFFIRS | 0.0467
HMKGHQASTTWISERVKDIIKEDPTLGARKLQKRLEIHYNIELSYFKVWSGKNLQWMIFMVL | 0.022
HMTFEAKKGYINADMSVNVRETASTSATVIITLNPNTEVKVVGEENDFYKIEYKEYKGYVAKRLISDSQVQ | -0.166
HMLFSDSDLKSLLDKDISYVIEMYKAASKEQKRIISDMVAQKVMEKKYIDANILIQLGELTGINYMDL | -0.472
HMGDVSGFLRGVLADGPVPAKTVFSEASGAGYSRDQIQRAARKIGVERRKTGMAGGWVWELEP | 0.014
HMEMNDFETLRDMYLTGKIWNVGDIVEANGVRGKVIRKGTNYLSFVDEDNKVHKAWLYDIEE | -0.197
HMRALPAGQADLLKWIDGVTPRSVEELELLSGLEPGRLSELLMELELAGIVRAVAGDSYIKISKS | -0.462
HMSTSAAELLRTARQQAGMSQSAVAELAKTSQSAIAMYEAGNREPSLPVLQRLLAATGHQLSLSVLP | -0.228
HMTNYREILRLRSLGLNHSRIAESMGISRPTVIAALQRAQTQELNWQAAESLSDIDLAQRLNP | -0.395
HMQISDTSELEAVVQDILKANMDVVAKIKAGKTNSANFLMGQVMKLTKGRAKPDTVLQLILDAVKQ | -0.301
HMVPAMGSLTLIKGGVNLRNAPGGLTIAQLDRGLVLSYTKFVQKDGYTWYLVNSPKGTGYVRSDVVQLGS | -0.251
HMEIYELTDQEQRVLEFIGEGMTNREIAKNMFLAEKTVKNYVSSLLRKLGLERRTQAAAMAVRLSV | -0.0994
HMPSKKHARWIELEARKFMADNEDAVSDLHELRTRAANFAALKTSTLPVDQHRAIVAGFVARVNELGRRI | -0.631
HMDITKPKISFEPGEMVRVVDGPFNDFSGVVEEVNYEKSKVRVAVLIFGRSTPVELQFNQIEK | -0.252
HMNRTEYMAALRRALSVLPEEERASALRYYEEYFDDAGPENEEKVIADLGAPEKVAGQILADYRE | 0.00316
HMGMNSGQADFRGISLALSVDAEAEAQRLFTALADGGQVQMPLSKTFFSPAFGMVADRFGVGWMVVTN | 0.247
HMESYTGLAVTEDDDGWSNVRSGNSTSYSILFKIYAGEKFNILSNDGKWSYIDFNGRKGYIHNSIIRKY | -3.87
HMKTAAKVLGESGGKPVTVQSGRYGPYVQLGTIRATLPKDLDQEAVTLDKALELIDAKAERSGK | 0.172
HMKPSKYTLAIDSIPVHVTRKQMKSIRLRVTPLGEVRVSAPYGVKDSEIVEMVRSRKLWIESQQRA | -0.992
HMGTITKRTNPSGAVVWRAQIRINKADMPTYSESKTFSKKSLATEWLKRREAEIEANPDLIL | -0.348
HMSNSWSYSEFMKAVESGQVESVTISGQSIKGTSRGGQAFESVLPAFDDKLMDTLLVNDVEVIGEKP | -0.00195
HMENRILIPTAENIGERLDRYISSELDAPRSQVQIWIDSGLVAVSGGLKPKNYRLREGDEIEVTIPDPV | 0.0407

Sequence | soluble fraction (log2)
HMDKMVAVPNVRGIEASEAEATLIAQGLFVEVEKSDSEDANVAYGEVYAQTPKAGNRVEEGTTITIKVRTE | 0.0555
HMIDAHTALLAKRLEAKGMLPLTDKSSAEEIYAEFGISKKAFKKALGALYKERLVRIGEDGVVWI | -1.27
HMSLSVEESYKLLDISPSAGDEEITKKFRLLALKYHPDKNRSKIEWANNIMSRLNQAYSVIMSSRFESNAE | -0.476
HMKALPSAEDVALARESGRVLSTVLQTRAETQQIDFHDDKGAVRSVTLPTTALRLLLDVLTEIGQGNAV | -0.23
HMARSKSRQSSVLESVPGLGPSRRRNLLRHFGGLQGVVKAGVEDLMAVRGISRTLAETVYDHLHPGS | -0.289
HMREIDIWVAEDADSQRIDKYLSMVVEDLSRSRIASLIEGGSILVNGEVIRAKYKVKPADHITAAFEDEM | -0.72
HMSGEDYLERILMLKEKHGNVRAIDIANSMNFSKPSVSIALHKLSENGYVVIQNNGAIELTEKGLEVAT | -0.315
HMVKSDLVGHRFILVEDVTPKLTPKYHYSGINWKLITTDNLVAGTRVEVIQVDVGKFHIKAIK | -1.65
HMTGIELLSHREHQVYDLLTQGRTVTEIGAQLNLAPNTVSTYRARILEKTGTKNDVELALYAQRH | -0.209
HMKSKPRVPFGSLVEMGILKPGSILFDPKGKIKTKVMVDGSIKYKETEGSIHKVAAQIMGTESYNGWTYW | 0.355
HMHKTEIKIPSREDILAVLRQAQAPLTREQVFEHLKLTEDQIPIIEKRLNAMERDGQLMPNRKGMLLLSTK | 0.266
HMADEIQLVVQVNGKLRGRIMVAPDASREEIEKTALADADVSRFLGDTPVKKVIIVPKRLVNIVAPAPK | -0.0114
HMQSLPFSFAKRHGVLLKSINHLHGEAVYRIGANPLSLSEVQRYAGVPLKLSSITVEKFDRLLQETYEHD | -1.14
HMAPTPAGNLRSLKSEIVNYTRQSSTAYVYTFKDLSSGELYTARASRYYAAAGDTAYISTAAGAITDM | 0.0171
HMGNLIIFYDEGIGSGPLMKAVNDSGVSLVYEYKNLHGIAIRPSAKTNIQDAIAYFQKVNGVLSVEQ | -2.52
HMTQPAEINRLVEQMGSSDYKSRQEAYERLHQMGPGILDLIYPYRNHADPEIQTRVRELILSYRW | 0.264
HMKYKTKRDMILALMKKEILSGELKPRTRLLISEVASRYEVSEIPVREAFQVLIQEDLVRSTGAGFEVT | -0.744
HMNSSHRLIGLDPGLRVTGWGIVDAIGTKLVHVANGSVKSQQNAPLATRLLELENGLEEVFDNWQPDFA | 0.148
HMKRWHVGDPIDALTAAGKVPSWSTIRQRFWKTIAALYPDIEQSERLQRGLAMLDEAGTSIELHHP | -1.01
HMPSEDELAERLRGAIRQGDILNEGRMPPERALAEHFGVSRARLRLALGLLQEDGTIYRRHGQGTFAT | -0.132
HMTKEAIAQKLRIARQESGLTQKDVSAKIGRPQQTIASWEVGRSQPDADTLYSLLLLYKVSPNTFFEYD | -0.352
HMIAKIEGQISYVGNRFLIVDVSGVGYKLFVTNEAISLSKVEESIKLWVHTAVRENSIDLYG | -0.7
HMRYTAAEMAKKLDISRSYLYYLKEAGVVEIEKNENGKPIWTESVYNQLFEYIKKNHRTEEADNTQ | -0.578
HMDIGNKIKELRTEQKMTQSDLAERLGVTKSSISSYENGSRLPSYDILLKIARIFKVSTDILLG | 0.514
